According to paper PMC6441497:

System: Pho4 (yeast)
Assay: EMSA
Details: EMSA: 10 mM Tris-HCl pH 7.6, 1 mM MgCl2, 60 mM KCl, 3 mg/ml BSA, 1% glycerol, 1% Ficoll, 1 mM DTT, 1 ug poly(dI-dC), 100 ng calf thymus DNA, 20 ul, 10 min …

## 601 free DNA with Pho4 site
  Kd: 240 nM
